Experimental data taken from patent publication US20060205646.

Molecular target: T1, Heat gamma
T1 chain: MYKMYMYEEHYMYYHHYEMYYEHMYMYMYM

| Protein | cleavage of Fluorogenic Peptide substrate I by 0.2 µg activated recombinant MMP1, 60 µg Heat Gamma | cleavage of Fluorogenic Peptide substrate I by 0.2 µg activated recombinant MMP2, 60 µg Heat Gamma |
| --- | --- | --- |
| activated recombinant MMP1 (protein) FVLTEGNPRWEQTHLTYRIENYTPDLPRADVDHAIEKAFQLWSNVTPLTFTKVSEGQADIMISFVRGDHRDNSPFDGPGGNLAHAFQPGPGIGGDAHFDEDERWTNNFREYNLHRVAAHELGHSLGLSHSTDIGALMYPSYTFSGDVQLAQDDIDGIQAIYGRSQNPVQPIGPQTPKACDSKLTFDAITTIRGEVMFFKDRFYMRTNPFYPEVELNFISVFWPQLPNGLEAAYEFADRDEVRFFKGNKYWAVQGQNVLHGYPKDIYSSFGFPRTVKHIDAALSEENTGKTYFFVANKYWRYDEYKRSMDPGYPKMIAHDFPGIGHKVDAVFMKDGFFYFFHGTRQYKFDPKTKRILTLQKANSWFNCRKN | Heat gamma efficiently inhibits the MMP1 activity as indicated by a decrease in relative fluorescence | – |
| activated recombinant MMP2 (protein) YNFFPRKPKWDKNQITYRIIGYTPDLDPETVDDAFARAFQVWSDVTPLRFSRIHDGEADIMINFGRWEHGDGYPFDGKDGLLAHAFAPGTGVGGDSHFDDDELWTLGEGQVVRVKYGNADGEYCKFPFLFNGKEYNSCTDTGRSDGFLWCSTTYNFEKDGKYGFCPHEALFTMGGNAEGQPCKFPFRFQGTSYDSCTTEGRTDGYRWCGTTEDYDRDKKYGFCPETAMSTVGGNSEGAPCVFPFTFLGNKYESCTSAGRSDGKMWCATTANYDDDRKWGFCPDQGYSLFLVAAHEFGHAMGLEHSQDPGALMAPIYTYTKNFRLSQDDIKGIQELYGASPDIDLGTGPTPTLGPVTPEICKQDIVFDGIAQIRGEIFFFKDRFIWRTVTPRDKPMGPLLVATFWPELPEKIDAVYEAPQEEKAVFFAGNEYWIYSASTLERGYPKPLTSLGLPPDVQRVDAAFNWSKNKKTYIFAGDKFWRYNEVKKKMDPGFPKLIADAWNAIPDNLDAVVDLQGGGHSYFFKGAYYLKLENQSLKSVKFGSIKSDWLGC | – | Heat gamma efficiently inhibits the MMP2 activity as indicated by a decrease in relative fluorescence |
